Data as given in patent US20140178332A1 (published 2014).
Where two headings read alike, the source gives them in different places.

T1: recombinant purified human IL-12 p70 (human, UniProt P29459 23-219)
T1 sequence 1: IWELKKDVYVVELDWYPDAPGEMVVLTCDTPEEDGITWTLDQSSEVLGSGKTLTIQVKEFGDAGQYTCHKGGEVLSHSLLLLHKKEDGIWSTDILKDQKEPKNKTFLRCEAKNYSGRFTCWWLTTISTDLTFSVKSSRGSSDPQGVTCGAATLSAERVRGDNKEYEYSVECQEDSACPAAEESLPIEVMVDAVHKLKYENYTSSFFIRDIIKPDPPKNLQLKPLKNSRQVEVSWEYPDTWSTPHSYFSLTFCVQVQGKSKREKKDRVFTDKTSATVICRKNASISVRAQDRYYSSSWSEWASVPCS
T1 sequence 2: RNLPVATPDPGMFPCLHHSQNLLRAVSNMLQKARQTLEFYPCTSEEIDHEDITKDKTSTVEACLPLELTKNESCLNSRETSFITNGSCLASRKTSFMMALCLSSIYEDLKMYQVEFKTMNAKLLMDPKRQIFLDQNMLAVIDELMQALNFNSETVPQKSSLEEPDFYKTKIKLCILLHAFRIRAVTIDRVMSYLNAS

T2: recombinant purified cyno IL-12 p70 (cynomolgus monkey)
T2 chain 1: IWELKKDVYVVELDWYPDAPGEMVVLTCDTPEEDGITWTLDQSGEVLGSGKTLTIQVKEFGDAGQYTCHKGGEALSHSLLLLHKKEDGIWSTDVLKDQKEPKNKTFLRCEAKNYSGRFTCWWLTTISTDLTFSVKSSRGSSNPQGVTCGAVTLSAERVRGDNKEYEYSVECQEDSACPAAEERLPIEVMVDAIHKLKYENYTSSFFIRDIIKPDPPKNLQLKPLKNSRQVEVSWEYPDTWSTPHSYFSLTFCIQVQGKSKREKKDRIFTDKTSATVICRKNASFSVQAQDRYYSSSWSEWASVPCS
T2 chain 2: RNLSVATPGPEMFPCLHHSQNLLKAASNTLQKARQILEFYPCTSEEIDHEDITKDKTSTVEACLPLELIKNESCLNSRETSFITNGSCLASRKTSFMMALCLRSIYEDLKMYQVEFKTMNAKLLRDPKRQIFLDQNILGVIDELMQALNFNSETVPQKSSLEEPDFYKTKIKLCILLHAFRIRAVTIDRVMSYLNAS


Assays:
[1] = target: T1, recombinant purified human IL-12 p70; experiment: cell-based or functional assay
[2] = target: T1, recombinant purified human IL-12 p70; experiment: SPR (BIAcore) as in Example 1.1.B, human IL-12p70
Description: Approximately 5000 RU of goat anti-mouse IgG, (Fcγ), fragment specific polyclonal antibody (Pierce Biotechnology Inc, Rockford, Ill.) diluted in 10 mM sodium acetate (pH 4.5) was directly immobilized across a CM5 research grade biosensor chip using a standard amine coupling kit according to manufacturer's instructions and procedures at 25 μg/ml. Unreacted moieties on the biosensor surface were blocked with ethanolamine. Modified carboxymethyl dextran surface in flowcell 2 and 4 was used as a reaction surface. Unmodified carboxymethyl dextran without goat anti-mouse IgG in flow cell 1 and 3 was used as the reference surface. For kinetic analysis, rate equations derived from the 1:1 Langmuir binding model were fitted simultaneously to association and dissociation phases of all eight injections (using global fit analysis) with the use of Biaevaluation 4.0.1 software. Purified antibodies were diluted in HEPES-buffered saline for capture across goat anti-mouse IgG specific reaction surfaces. Mouse antibodies to be captured as a ligand (25 μg/ml) were injected over reaction matrices at a flow rate of 5 μl/min. The association and dissociation rate constants, kₒₙ (unit M⁻¹ s⁻¹) and koff (unit s⁻¹) were determined under a continuous flow rate of 25 μl/min. Rate constants were derived by making kinetic binding measurements at ten different antigen concentrations ranging from 10-200 nM. The equilibrium dissociation constant (unit M) of the reaction between mouse antibodies and recombinant purified human IL-12 p70 or recombinant purified human IL-12 p40 was then calculated from the kinetic rate constants by the following formula: KD=koff/kₒₙ. Binding is recorded as a function of time and kinetic rate constants are calculated. In this assay, on-rates as fast as 10⁶M⁻¹ s⁻¹ and off-rates as slow as 10⁻⁶ can be measured. […]

[3] = target: T2, recombinant purified cyno IL-12 p70; experiment: cell-based or functional assay
[4] = target: T1, recombinant purified human IL-12 p70; experiment: cell-based or functional assay; remark: listed apart in the source
[5] = target: T1, recombinant purified human IL-12 p70; experiment: cell-based or functional assay; remark: listed apart in the source
[6] = target: T1, recombinant purified human IL-12 p70; experiment: SPR (Biacore) according to Example 1.1.B
Description: The BIACORE assay (Biacore, Inc, Piscataway, N.J.) determines the affinity of antibodies with kinetic measurements of on-, off-rate constants. Binding of antibodies to recombinant purified human IL-12 p70 or recombinant purified human IL-12 p40 were determined by surface plasmon resonance-based measurements with a Biacore® 3000 instrument (Biacore® AB, Uppsala, Sweden) using running HBS-EP (10 mM HEPES [pH 7.4], 150 mM NaCl, 3 mM EDTA, and 0.005% surfactant P20) at 25° C. All chemicals were obtained from Biacore® AB (Uppsala, Sweden) or otherwise from a different source as described in the text. Approximately 5000 RU of goat anti-mouse IgG, (Fcγ), fragment specific polyclonal antibody (Pierce Biotechnology Inc, Rockford, Ill.) diluted in 10 mM sodium acetate (pH 4.5) was directly immobilized across a CM5 research grade biosensor chip using a standard amine coupling kit according to manufacturer's instructions and procedures at 25 μg/ml. Unreacted moieties on the biosensor surface were blocked with ethanolamine. Modified carboxymethyl dextran surface in flowcell 2 and 4 was used as a reaction surface. Unmodified carboxymethyl dextran without goat anti-mouse IgG in flow cell 1 and 3 was used as the reference surface. For kinetic analysis, rate equations derived from the 1:1 Langmuir binding model were fitted simultaneously to association and dissociation phases of all eight injections (using global fit analysis) with the use of Biaevaluation 4.0.1 software. Purified antibodies were diluted in HEPES-buffered saline for capture across goat anti-mouse IgG specific reaction surfaces. Mouse antibodies to be captured as a ligand (25 μg/ml) were injected over reaction matrices at a flow rate of 5 μl/min. The association and dissociation rate constants, kₒₙ (unit M⁻¹ s⁻¹) and koff (unit s⁻¹) were determined under a continuous flow rate of 25 μl/min. Rate constants were derived by making kinetic binding measurements at ten different antigen concentrations ranging from 10-200 nM. The equilibrium dissociation constant (unit M) of the reaction between mouse antibodies and recombinant purified human IL-12 p70 or recombinant purified human IL-12 p40 was then calculated from the kinetic rate constants by the following formula: KD=koff/kₒₙ. Binding is recorded as a function of time and kinetic rate constants are calculated.

| Binder | Av. IC50 (nM) huIL-12, PHA blast assay [1] [nM] | Kd [2] [nM] | koff [2] [s⁻¹] | kon [2] [M⁻¹ s⁻¹] | Average IC50 (nM) Cyno IL-12, PHA blast IFN-γ assay [3] [nM] | Average IC50 (nM) Human IL-12, PHA blast IFN-γ assay [4] [nM] | other results |
| --- | --- | --- | --- | --- | --- | --- | --- |
| anti-IL-12p40 humanized antibody 3G7.3 (antibody, human IgG1, kappa, L234A L235A, V domains shown, Back-mutated CDR-grafted antibody; COS cells) VH: EVQLVQSGAEVKKPGASVKVSCKATGYTFNDYWIEWVRQAPGQGLEWMGGFSHGSGSTNYNEKFKGRVTMTADSSTNTAYMELRSLRSDDTAVYYCARRRFRGMDYWGQGTTVTVSS VL: EIVMTQSPATLSVSPGERATLSCKASQSVSNDVAWYQQKPGQAPRLLIYYASNRYTGVPDRFSGSGSGTEFTLTISSLQSEDFAVYYCQQDYSSPWSFGGGTKVEIKR | 0.42 | 0.2 | 0.00015 | 780000 | – | – | – |
| anti-IL-12p40 humanized antibody 1D4.6 (antibody, human IgG1, kappa, L234A L235A, V domains shown, COS cells) VH: EVTLRESGPALVKPTQTLTLTCTFSGFSLSKSVMGVSWIRQPPGKALEWLAHIYWDDDKYYNPSLKSRLTISKDTSKNQVVLTMTNMDPVDTATYYCTRRGIRSAMDYWGQGTTVTVSS VL: DVVMTQSPDSLAVSLGERATINCKASQSVSNDVAWYQQKPGQPPKLLIYYASNRYTGVPDRFSGSGYGTDFTLTISSLQAEDVAVYYCQQDYNSPWTFGGGTKVEIKR | 0.15 | < 0.01 | < 1e-05 | 480000 | – | – | – |
| anti-IL-12p40 humanized antibody 1D4.8 (antibody, human IgG1, kappa, L234A L235A, V domains shown, Back-mutated CDR-grafted antibody; COS cells) VH: EVTLRESGPALVKPTQTLTLTCTFSGFSLRKSVMGVSWIRQPPGKALEWLAHIYWDDDKYYNPSLKSRLTISKDTSKNQVVLTMTNMDPVDTATYYCTRRGIRSAMDYWGQGTTVTVSS VL: DIVMTQSPDSLAVSLGERATINCKASQSVSNDVAWYQQKPGQPPKLLIYYASNRYTGVPDRFSGSGSGTDFTLTISSLQAEDVAVYYCQQDYNSPWTFGGGTKVEIKR | 0.095 | < 0.01 | < 1e-05 | 120000 | – | – | – |
| anti-IL-12p40 humanized antibody 1A6.9 (antibody, human IgG1, kappa, L234A L235A, V domains shown, Back-mutated CDR-grafted antibody; COS cells) VH: EVTLRESGPALVKPTQTLTLTCTFSGFSLSTSGMGVSWIRQPPGKALEWLAHIWWDGDNYYNPSLKSRLTISKDTSKNQVVLTMTNMDPVDTATYYCARRTRVNYAMDYWGQGTTVTVSS VL: SVVMTQSPDSLAVSLGERATINCKASQSVSNDVAWFQQKPGQPPKLLIYYASNRYTGVPDRFSGSGYGTDFTLTISSLQAEDVAVYYCQQDYNSPWTFGGGTKVEIKR | 0.15 | < 0.01 | < 1e-05 | 350000 | – | – | – |
| additional humanized anti-IL-12 antibody 1A6.10 (antibody, human IgG1, V domains shown, Only variable domains tied to it) VH: EVTLRESGPGLVKPTQTLTLTCTLYGFSLSTSGMGVSWIRQPPGKGLEWLAHIWWDGDNYYNPSLKSQLTISKDTSKNQVVLKLTSVDPVDTATYYCARRTRVNYAMDYWGQGTLVTVSS VL: DIQMTQSPSSLSASVGDRVTITCKASQSVSNDVAWYQQKPGKAPKLLIYYASNRYTGVPDRFSGSGYGTDFTFTISSLQPEDIATYYCQQDYNSPWTFGGGTKVEIKR | – | – | – | – | – | – | Av. IC50 (nM) huIL-12, PHA blast assay [5]: 0.15 nM; Kd [6]: 0.024 nM; koff [6]: 7.6e-06 s⁻¹; kon [6]: 320000 M⁻¹ s⁻¹ |

Continued, in another order:

| Av. IC50 (nM) huIL-12, PHA blast assay [1] [nM] | Kd [2] [nM] | koff [2] [s⁻¹] | kon [2] [M⁻¹ s⁻¹] | Average IC50 (nM) Cyno IL-12, PHA blast IFN-γ assay [3] [nM] | Average IC50 (nM) Human IL-12, PHA blast IFN-γ assay [4] [nM] | Binder | other results |
| --- | --- | --- | --- | --- | --- | --- | --- |
| – | – | – | – | 0.02 | 0.021 | chimeric anti-human IL-12p40 antibody 1A6-Chim (antibody, human IgG1, kappa, L234A L235A, V domains shown) VH: QVTLKESGPGILKPSQTLSLTCSFSGFSLSTSGMGVSWIRQPSGKGLEWLAHIWWDGDNYYNPSLKSQLTISKDTSRNQVFLRIATVDTADTATYYCARRTRVNYAMDYWGQGTSVTVSS VL: SVVMTQTPKFLLVSAGDRVTITCKASQSVSNDVAWFQQKPGQSPKLLIYYASNRYTGVPDRFTGSGYGTDFTFTISTVQAEDLAVYFCQQDYNSPWTFGGGTKLEIKR | – |
| – | – | – | – | 0.29 | 0.11 | chimeric antibody 3G7/1D4-Chim (chimeric 3G7 heavy chain with 1D4 chimeric light chain) (antibody, human IgG1, kappa, L234A L235A, V domains shown) VH: QVQLQQSGAELMKPGASVKISCKATGYTFNDYWIEWVKQRPGHGLEWIGGFSHGSGSTNYNEKFKGKATFTADSSSNTAYMQLSSLTSEDSAVYYCARRRFRGMDYWGQGTSVTVSS VL: SVVMTQTPKFLLVSAGDRVTITCKASQSVSNDVAWYQQKPGQSPKLLIYYASNRYTGVPDRFTGSGYGTDFTFIISTVRAEDLAVYFCQQDYNSPWTFGGGTKLEIKR | – |
| – | – | – | – | 0.32 | 0.12 | chimeric anti-human IL-12p40 antibody 3G7-Chim (antibody, human IgG1, kappa, L234A L235A, V domains shown) VH: QVQLQQSGAELMKPGASVKISCKATGYTFNDYWIEWVKQRPGHGLEWIGGFSHGSGSTNYNEKFKGKATFTADSSSNTAYMQLSSLTSEDSAVYYCARRRFRGMDYWGQGTSVTVSS VL: SIVMTQTPKFLLVSAGDRVTITCKASQSVSNDVAWYQQKPGQSPKLLIYYASNRYTGVPDRFTGSGYGTDFTFTITTVQAEDLAVYFCQQDYSSPWSFGGGTKLEIKR | – |
| – | – | – | – | 0.15 | 0.17 | chimeric anti-human IL-12p40 antibody 8E1-Chim (antibody, human IgG1, kappa, L234A L235A, V domains shown) VH: EVKLVESGGGLVQPGGSRKLSCAASGFTFSDYGMVWVRQAPGKGLEWVASISSGSSNIYYADTVKGRFTISRDDPNNTLFLQMRSLRSEDTAMYYCARNPYWGQGTTLTVSS VL: DIVMTQSQKFMSTSVGDRVSVTCKASQNVGTNVAWYQQKPGQSPKGLIYSASHRYSGVPDRFAGSGSGTDFTLTISNVQSEDLAEYFCQQYNSYPLTFGGGTKLELKR | – |
| 10 | 0.76 | 0.001 | 1.3e+06 | – | – | anti-IL-12p40 humanized antibody 8E1.3 (antibody, human IgG1, kappa, L234A L235A, V domains shown, Back-mutated CDR-grafted antibody; COS cells) VH: EVKLVESGGGLVQPGGSLRLSCAASGFTFSDYGMVWVRQAPGKGLEWVASISSGSSNIYYADTVKGRFTISRDDSKNTLYLQMNSLKTEDTAVYYCARNPYWGQGTTVTVSS VL: DIVMTQSPSSLSASVGDRVTITCKASQNVGTNVAWYQQKPEKAPKSLIYSASHRYSGVPSRFSGSGSGTDFTLTISSLQPEDFATYYCQQYNSYPLTFGGGTKVEIKR | – |
